Experimental findings from US20250223332A1 (BOARD OF TRUSTEES OF THE UNIVERSITY OF ILLINOIS, published 2025) are described below.

The target in experiment [1] is T1, hDLL4-Fc (Sino Biologics) (human, UniProt Q9NR61 27-524, limits assumed).
T1 construct: Bought from Sino Biologics; also called Recombinant Fc-tagged hDLL4; recombinant hDLL4; not shown: Fc tag of the bought protein
The experiment is described as follows: SPR (Biacore T200), hDLL4-Fc on the chip, decoy as analyte, KD = kd/ka. The procedure:
(§1) Affinity Analysis. The binding kinetics of N1₁₀₋₁₄Fc and N4₁₀₋₁₄Fc were analyzed using a Surface Plasmon Resonance (SPR)-based assay on the BIACORE™ T200 system (GE Healthcare). Human IgG Fc (Sino Biologics) was first immobilized on a CM5 biosensor chip. Subsequently, an appropriate concentration of hDLL4-Fc (Sino Biologics) and hJAG1-Fc (Sino Biologics) was captured to the surface at a Response Unit (RU) of up to 20,000. Various concentrations of N1₁₀₋₁₄Fc and N4₁₀₋₁₄Fc were then passed through the chip with running buffer (1×HBS-N (10 mM HEPES, 150 mM NaCl) with 0.005% polysorbate 20, 1 mM CaCl₂), 2 mM MgCl₂, PH 7.4). After each reaction, the captured ligands and analyte were removed by regeneration buffer (1×HBS-N (10 mM HEPES, 150 mM NaCl) with 0.005% polysorbate 20, 1 mM CaCl₂), 2 mM MgCl₂, pH 7.4). The whole reaction was conducted at 25° C. and a flow rate of 25 μl/min. Sensorgrams of each concentration were obtained and analyzed by BIACORE™ evaluation software (GE Healthcare). The equilibrium constant KD was calculated from the ratio of the dissociation rate constant kd to the association rate constant kₐ (kd/kₐ).
Surface plasmon resonance (SPR) spectroscopy was used to characterize and quantify the interactions between these proteins. […]
In general terms: SPR reads the build-up and loss of mass on a sensor chip optically.

The target of experiment [2] is T1, hDLL4-Fc (Sino Biologics). Kind of experiment: SPR (Biacore T200), hDLL4-Fc on the chip, decoy as analyte, multi-cycle kinetics, 25 C. The method, then:
as §1
Surface plasmon resonance (SPR) spectroscopy was used to characterize and quantify the interactions between these proteins. Recombinant Fc-tagged hDLL4 and hJAG1 were immobilized on the sensor chip using amine coupling and multi-cycle kinetic experiments were performed using increasing concentrations of either N1₁₀₋₁₄Fc or N4₁₀₋₁₄Fc. As a control, recombinant IgG Fc was immobilized on the sensor chip.

T1 sequence (Q9NR61 27-524 limits assumed): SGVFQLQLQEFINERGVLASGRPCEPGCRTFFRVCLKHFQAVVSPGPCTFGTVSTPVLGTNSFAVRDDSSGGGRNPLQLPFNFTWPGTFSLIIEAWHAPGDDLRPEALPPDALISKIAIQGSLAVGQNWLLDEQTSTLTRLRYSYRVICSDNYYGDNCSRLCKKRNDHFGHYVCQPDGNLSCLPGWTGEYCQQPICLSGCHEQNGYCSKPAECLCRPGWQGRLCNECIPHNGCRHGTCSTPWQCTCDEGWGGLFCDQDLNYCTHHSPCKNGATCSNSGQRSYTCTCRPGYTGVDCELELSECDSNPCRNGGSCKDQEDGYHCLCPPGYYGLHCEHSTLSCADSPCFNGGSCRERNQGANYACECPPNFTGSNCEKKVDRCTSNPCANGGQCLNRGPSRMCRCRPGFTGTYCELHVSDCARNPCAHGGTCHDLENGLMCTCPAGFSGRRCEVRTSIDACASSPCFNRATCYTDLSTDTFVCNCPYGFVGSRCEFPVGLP

B1: N110-14Fc (human Notch1 EGF-like repeats 10-14 fused to human IgG Fc) (Fc fusion)
chain: ARGPRCISNPCNEGSNCDTNPVNGKAICTCPSGYTGPACSQDVDECSLGANPCEHAGKCINTLGSFECQCLQGYTGPRCEIDVNECVSNPCQNDATCLDQIGEFQCICMPGYEGVHCEVNTDECASSPCLHNGRCLDKINEFQCECPTGFTGHLCQYDVDECASTPCKNGAKCLDGPNTYTCVCTEGYTGTHCE
notes: Produced in HEK293 cells; also called Notch1 peptibody; Notch1 decoy; not shown: human IgG Fc
Usually Kd stands for the equilibrium constant for the complex coming apart. What is called koff is the rate constant with which the complex falls apart. Read a low koff as slow dissociation. What is called kon is the second-order rate constant of association. For the molecule B1, the Kd in experiment [1] stood at 605 nM. In experiment [2], this molecule gave a koff of 0.019 s⁻¹ and a kon of 31500 M⁻¹ s⁻¹.

B2: N410-14Fc (human Notch4 EGF-like repeats 10-14 fused to human IgG Fc) (Fc fusion)
chain: LEDMCLSQPCHGDAQCSTNPLTGSTLCLCQPGYSGPTCHQDLDECLMAQQGPSPCEHGGSCLNTPGSFNCLCPPGYTGSRCEADHNECLSQPCHPGSTCLDLLATFHCLCPPGLEGQLCEVETNECASAPCLNHADCHDLLNGFQCICLPGFSGTRCEEDIDECRSSPCANGGQCQDQPGAFHCKCLPGFEGPRCQ
notes: Produced in HEK293 cells; also called Notch4 peptibody; Notch4 decoy; not shown: human IgG Fc
B2: the Kd in experiment [1] came out at 962 nM. In experiment [2], this molecule had a koff of 0.0099 s⁻¹ and a kon of 10300 M⁻¹ s⁻¹.
